From publication PMC12136191, “Structural basis for mTORC1 regulation by the CASTOR1-GATOR2 complex” (Research Square, 2025) come the findings set out here.

Sequences and labels used below:
B1: MIOS, subunit within purified GATOR2 (natural protein)
chain: MSGTKPDILWAPHHVDRFVVCDSELSLYHVESTVNSELKAGSLRLSEDSAATLLSINSDTPYMKCVAWYLNYDPECLLAVGQANGRVVLTSLGQDHNSKFKDLIGKEFVPKHARQCNTLAWNPLDSNWLAAGLDKHRADFSVLIWDICSKYTPDIVPMEKVKLSAGETETTLLVTKPLYELGQNDACLSLCWLPRDQKLLLAGMHRNLAIFDLRNTSQKMFVNTKAVQGVTVDPYFHDRVASFYEGQVAIWDLRKFEKPVLTLTEQPKPLTKVAWCPTRTGLLATLTRDSNIIRLYDMQHTPTPIGDETEPTIIERSVQPCDNYIASFAWHPTSQNRMIVVTPNRTMSDFTVFERISLAWSPITSLMWACGRHLYECTEEENDNSLEKDIATKMRLRALSRYGLDTEQVWRNHILAGNEDPQLKSLWYTLHFMKQYTEDMDQKSPGNKGSLVYAGIKSIVKSSLGMVESSRHNWSGLDKQSDIQNLNEERILALQLCGWIKKGTDVDVGPFLNSLVQEGEWERAAAVALFNLDIRRAIQILNEGASSEKGDLNLNVVAMALSGYTDEKNSLWREMCSTLRLQLNNPYLCVMFAFLTSETGSYDGVLYENKVAVRDRVAFACKFLSDTQLNRYIEKLTNEMKEAGNLEGILLTGLTKDGVDLMESYVDRTGDVQTASYCMLQGSPLDVLKDERVQYWIENYRNLLDAWRFWHKRAEFDIHRSKLDPSSKPLAQVFVSCNFCGKSISYSCSAVPHQGRGFSQYGVSGSPTKSKVTSCPGCRKPLPRCALCLINMGTPVSSCPGGTKSDEKVDLSKDKKLAQFNNWFTWCHNCRHGGHAGHMLSWFRDHAECPVSACTCKCMQLDTTGNLVPAETVQP
notes: MIOS, subunit of GATOR2; codon optimized synthetic DNA; The MIOS chain of m1, written alone for the pairs that touch in the structure; also called front face MIOS; source: HEK293-GNTI cells, co-expressed with the other GATOR2 subunits, purified as part of GATOR2
B2: CASTOR1 S111A/D304A (apo-locked mutant) (natural protein)
chain: MELHILEHRVRVLSVARPGLWLYTHPLIKLLFLPRRSRCKFFSLTETPEDYTLMVDEEGFKELPPSEFLQVAEATWLVLNVSSHSGAAVQAAGVTKIARSVIAPLAEHHVAVLMLSTYQTDFILVREQDLSVVIHTLAQEFDIYREVGGEPVPVTRDDSSNGFPRTQHGPSPTVHPIQSPQNRFCVLTLDPETLPAIATTLIDVLFYSHSTPKEAASSSPEPSSITFFAFSLIEGYISIVMDAETQKKFPSDLLLTSSSGELWRMVRIGGQPLGFDECGIVAQIAGPLAAADISAYYISTFNFAHALVPEDGIGSVIEVLQRRQEGLAS
notes: CASTOR1 (arginine sensor) with S111A and D304A; codon optimized synthetic DNA; Homodimer in the structure; also called CASTOR1^apo; 6X-His-CASTOR1^apo; source: E. coli BL21(DE3), pET-28a+, purified (Ni-NTA, Superdex 200 gel filtration)

Data set [1] deals with the molecule itself. Nature of the data set: cryo-EM structure; purified GATOR2 at 0.45 mg/mL with 3-fold molar excess of CASTOR1^apo, 45 minutes on ice, frozen on grids; no Arg; Titan Krios.
The target of data set [2] is B1. Described as above. Conditions: both partners purified.

For B1, the binding result in data set [1] is “binds”.
As for B2, the binding result in data set [2] and in data set [1] was “binds” throughout.
